{
  "source": "patent US20230256017A1",
  "about": "“METHODS OF MAKING CHIMERIC ANTIGEN RECEPTOR-EXPRESSING CELLS” (Novartis AG, priority 2020, published 2023)",
  "molecules": {"B1": {"name": "IL7: cytokine present during activation of T cells with αCD3αCD28 beads (protein, UniProt P13232 26-177, looked up)", "Interleukin-7": "DCDIEGKDGKQYESVLMVSIDQLLDSMKEIGSNCLNNEFNFFKRHICDANKEGMFLFRAARKLRQFLKMNSTGDFDLHLLKVSEGTTILLNCTGQVKGRKPAALGEAQPTKSLEENKSLKEQKKLNDLCFLKRLLQEIKTCWNKILMGTKEH"}},
  "system": "T cells",
  "assay": "T cell expansion with cytokines after TCR stimulation (cell surface staining)",
  "type": "cell-based",
  "conditions": "αCD3/αCD28 beads plus indicated cytokine",
  "protocol": "Previously frozen T cells were thawed and contacted with αCD3/αCD28 dynal beads (cell to bead ratio of 1 to 3) in the presence of indicated cytokines at day 0. From day 3, twice more T cell growth media (RPMI1640, 10% FBS, 2 mM L-glutamin, 100 µM non-essential amino acids, 1 mM sodium pyruvate, 10 mM Hepes, 55 µM β-mercaptoethanol, 10% FBS, and 100 U/ml of penicillin-streptomycin) was added to the plate with indicated cytokines (without cytokine, rhIL2 (50 IU/ml, Novartis), IL6 (10 ng/ml, R&D systems), IL7 (10 ng/ml, Peprotech), IL15 (10 ng/ml, Peprotech), and IL21 (10 ng/ml, Peprotech)) at day 3, 5, 6, 9, 12, 15, and 18.\nCells were harvested at indicated time points and then stained with live/dead dye (eFluro780, eBioscience), CD3 (BioLegend, clone#: OKT3), CD4 (BioLegend, clone#: OKT4), CD8 (BD Bioscience, clone#: RPA-T8), CD45RO (BioLegend, clone#: UCHL1), CCR7 (BioLegend, clone#: G043H7), CD27 (BD Horizon, clone#: L128), CD127 (BioLegend, clone#: A019D5), CD57 (BioLegend, clone#: HCD57), CD126 (BioLegend, clon#: UV4), and CD130 (R&D Systems, clone#: 28126) antibodies. The cells were acquired by FACS Fortessa and then FlowJo program was used for data analysis.",
  "data": [
    {"molecule": "B1", "values": [
      {"measurement": "T cell expansion", "result": "enhanced T cell expansion"}
    ]}
  ]
}
